Consider 8 molecules from paper PMC5602631, “Crimean-Congo hemorrhagic fever virus nucleocapsid protein has dual RNA binding modes”.

Where “and” joins values, the source holds several entries; their conditions need not be identical. Equal values may be shown once.

For data set [1], the target named is CCHFV nucleocapsid protein (N) (Crimean-Congo hemorrhagic fever virus strain 10200) (UniProt P89522). Description: filter binding. To be noted: 40 mM Tris-HCl pH 7.4, 80 mM NaCl (or 250 mM), 20 mM KCl, 1 mM DTT, room temperature, 30-45 min.
For data set [2] the target is unchanged. Description: BLI. The settings on record: 40 mM Tris-HCl pH 7.4, 80 mM NaCl (or 250 mM), 20 mM KCl, 1 mM DTT, room temperature, 30-45 min.
For data set [3] the target is unchanged. Description: tryptophan fluorescence. To be noted: 40 mM Tris-HCl pH 7.4, 80 mM NaCl (or 250 mM), 20 mM KCl, 1 mM DTT, room temperature, 30-45 min.
Data set [4] has as its target CCHFV nucleocapsid protein (N) (Crimean-Congo hemorrhagic fever virus …, UniProt P89522 1-482). The experiment in a line: competition; vs labeled 5' NCR; 40 mM Tris-HCl pH 7.4, 80 mM NaCl (or 250 mM), 20 mM KCl, 1 mM DTT, room temperature, 30-45 min. The settings on record: protein: recombinant; tags: His (C-terminal per Methods; Results says N-terminal); biotin (BLI); none (fluorescence); single strand.

As a reminder, the Kd is the concentration at which binding is half-saturated.

Chain of CCHFV nucleocapsid protein (N) (Crimean-Congo hemorrhagic fever virus strain 10200) (P89522 whole entry): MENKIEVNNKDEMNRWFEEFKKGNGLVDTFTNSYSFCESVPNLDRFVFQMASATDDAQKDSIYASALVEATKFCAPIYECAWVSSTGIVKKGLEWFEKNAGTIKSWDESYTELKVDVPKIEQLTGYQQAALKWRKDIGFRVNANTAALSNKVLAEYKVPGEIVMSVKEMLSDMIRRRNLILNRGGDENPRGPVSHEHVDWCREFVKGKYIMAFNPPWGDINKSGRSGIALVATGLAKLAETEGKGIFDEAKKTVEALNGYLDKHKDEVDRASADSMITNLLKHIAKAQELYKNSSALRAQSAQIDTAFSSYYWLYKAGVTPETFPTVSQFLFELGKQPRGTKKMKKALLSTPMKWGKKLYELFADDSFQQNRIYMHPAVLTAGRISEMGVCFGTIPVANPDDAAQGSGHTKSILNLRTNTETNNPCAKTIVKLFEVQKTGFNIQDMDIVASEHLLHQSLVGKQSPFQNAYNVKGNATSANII
Chain of CCHFV nucleocapsid protein (N) (P89522 whole entry): as above

5' NCR 100 nt gave a Kd in data set [1] of 131 nM.

In turn, 5' NCR 60 nt yielded a Kd in data set [1] of 131 nM.

CCHF S-segment vRNA showed a Kd in data set [1] of 55 nM.

Turning to Gluc RNA, the Kd in data set [1] is 55 nM and 43 nM.

In data set [1], Nonviral ssRNA (30 nt) returned a Kd of 121 nM.

5' NCR (30 nt): the Kd is 131 nM in data set [2]; 121 nM and 147 nM in data set [1]; 167 nM in data set [3].

In the case of Wild type panhandle, the Kd in data set [2] was 41 nM; in data set [1] it was 42 nM and 47 nM; in data set [3], 48 nM.

With UGGGCGUAAGCGGCACGUGUUUCUUUGAGA (ssRNA) [3' NCR (30 nt)], in data set [4], the binding result was “binds”.
